From patent CN109678957A

Molecular target: 人重组TSLP蛋白 (recombinant human TSLP protein from E. coli GDMCC No:60083) (human) (UniProt Q969D9)
Assay: ELISA, dilution series of the antibody on TSLP antigen protein (Fig. 4)

Chain of UniProt Q969D9 (Q969D9 29-159 limits assumed): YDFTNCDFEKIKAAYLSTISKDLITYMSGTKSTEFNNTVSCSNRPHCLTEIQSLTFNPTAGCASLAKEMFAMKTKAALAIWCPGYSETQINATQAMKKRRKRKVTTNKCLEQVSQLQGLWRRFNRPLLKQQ

B1: 抗人TSLP单克隆抗体 (anti-human TSLP monoclonal antibody, from hybridoma ascites, Example 3) (antibody, IgG1, V domains shown)
VH: QIQLVQSGPELKKPGETVKISCKASGYTFTNYGMNWVKQAPGKGLKWMGWINTYTGEPTYADDFKGRFAFSLETSASTAYLQINNLKNEDMATYFCARGLTGTRGRFAYWGQGTLVTVSA
VL: DIVMTQSHKFMSTSVGDRVSITCKASQDVSTAVAWYQQKPGQSPKLLIYWASTRHTGVPDRFTGSGSGTDYTLTISSVQAEDLALYYCQQHYSTPPTFGGGTKLEIK
  效价 (titer, dilution fold at which OD is more than 2 times the negative control) (倍 (dilution fold)): 655000
